Non-standard residues stand in square brackets, D forms with d. No end group written: not given here. *: point of attachment. Biotin = O=C1N[C@H]2[C@H](CS[C@H]2CCCCC(=O)*)N1; pY = N[C@@H](Cc1ccc(OP(=O)(O)O)cc1)C(=O)O

This passage reports Kd results from publication PMC3958483 (PLoS ONE, 2014).

Holding throughout (details): both partners purified
Test [1] concerns the target T1, SHP-2 N-terminal + C-terminal (N+C) SH2 domains (human, UniProt Q06124 2-219).
T1 construct: SHP-2, human, N-terminal + C-terminal SH2 domains, aa 2–219; also called SHP-2 (SH2-SH2); SHP2 N+C SH2; source: E. coli BL21(DE3)pLysS, purified (Oxford Protein Production Facility / in house; size exclusion chromatography)
T1 sequence (looked up): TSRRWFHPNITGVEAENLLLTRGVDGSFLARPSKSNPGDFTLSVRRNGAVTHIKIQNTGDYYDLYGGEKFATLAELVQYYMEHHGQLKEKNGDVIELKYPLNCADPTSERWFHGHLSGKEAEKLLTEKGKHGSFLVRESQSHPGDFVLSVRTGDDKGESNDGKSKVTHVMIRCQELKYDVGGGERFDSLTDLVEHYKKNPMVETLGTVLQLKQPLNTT
As to the kind of experiment: SPR; biotinylated tandem phosphopeptides immobilised on streptavidin chip; SHP-2 N+C SH2 injected; 25°C; HBS-EP; equilibrium binding (Table 4). In general terms: In SPR one partner is held on a chip, and binding of the other changes the refractive index at the surface.

For test [2], the target named is T1, SHP-2 N-terminal + C-terminal (N+C) SH2 …. The experiment in a line: SPR; biotinylated phosphopeptides immobilised on streptavidin chip (about 25 RU single, 50 RU tandem motifs); soluble recombinant protein injected; 37°C; HBS-EP; equilibrium binding (Table 4; same-day purification not given).
Test [3] addresses T2, PLCγ1 SH2-SH2-SH3 (tandem SH2 domains plus the SH3 domain of PLCγ1) (human, UniProt P19174 536-863).
T2 construct: PLCγ1, human, tandem SH2 domains plus SH3 domain, aa 536–863; Printed MW = 42531 of the recombinant protein; also called recombinant PLCγ1; source: E. coli BL21(DE3)pLysS, purified (Co2+ or Ni2+ column, size exclusion chromatography, same day as SPR)
T2 sequence: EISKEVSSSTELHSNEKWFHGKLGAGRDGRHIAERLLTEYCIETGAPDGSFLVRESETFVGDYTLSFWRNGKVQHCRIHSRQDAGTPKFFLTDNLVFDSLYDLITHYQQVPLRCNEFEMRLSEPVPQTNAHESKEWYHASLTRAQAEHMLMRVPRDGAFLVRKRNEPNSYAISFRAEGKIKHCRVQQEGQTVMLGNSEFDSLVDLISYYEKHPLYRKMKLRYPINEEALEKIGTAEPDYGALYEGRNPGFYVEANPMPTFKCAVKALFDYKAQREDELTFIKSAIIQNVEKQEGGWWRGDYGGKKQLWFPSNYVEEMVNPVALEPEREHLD
The experiment in a line: SPR; biotinylated phosphopeptides immobilised on streptavidin chip (about 25 RU single motifs); soluble recombinant protein injected in two-fold dilutions; 37°C; HBS-EP (10 mM HEPES pH 7.4, 150 mM NaCl, 3.4 mM EDTA, 0.005% P20); equilibrium binding, one-site model; proteins purified on the same day as SPR (Tables 1 and 6).

Test [4] concerns the target T3, PLCγ2 SH2-SH2-SH3 (tandem SH2 domains plus the SH3 domain of PLCγ2) (human, UniProt P16885 519-838).
T3 construct: PLCγ2, human, tandem SH2 domains plus SH3 domain, aa 519–838; Printed MW = 42415 of the recombinant protein; also called recombinant PLCγ2 SH2 domains; source: E. coli BL21(DE3)pLysS, purified (Co2+ or Ni2+ column, size exclusion chromatography, same day as SPR)
T3 sequence: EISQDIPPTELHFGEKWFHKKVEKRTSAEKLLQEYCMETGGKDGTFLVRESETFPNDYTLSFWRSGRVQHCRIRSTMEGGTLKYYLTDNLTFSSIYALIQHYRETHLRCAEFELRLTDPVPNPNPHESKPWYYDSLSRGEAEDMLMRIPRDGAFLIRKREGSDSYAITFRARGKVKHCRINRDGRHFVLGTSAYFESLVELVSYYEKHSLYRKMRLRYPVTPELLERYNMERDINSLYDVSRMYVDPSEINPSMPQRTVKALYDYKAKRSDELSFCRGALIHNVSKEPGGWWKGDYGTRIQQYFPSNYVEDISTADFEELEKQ
Described as above.

Test [5] concerns the target T4, SHIP SH2 (SH2 domain from human SHIP-1) (human, UniProt Q92835 5-101).
T4 construct: SHIP-1, human, single SH2 domain; also called hSHIP SH2; SHIP-1 SH2 domain; source: E. coli BL21(DE3)pLysS, purified (Co2+ or Ni2+ column, size exclusion chromatography)
T4 sequence (looked up): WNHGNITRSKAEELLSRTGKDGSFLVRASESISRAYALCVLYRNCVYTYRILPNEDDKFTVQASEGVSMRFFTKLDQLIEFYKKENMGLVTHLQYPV
As to the kind of experiment: SPR; biotinylated phosphopeptides immobilised on streptavidin chip (about 25 RU single, 50 RU tandem motifs); soluble recombinant protein injected; 37°C; HBS-EP; equilibrium binding (Table 4; same-day purification not given).

Test [6] concerns the target T5, EAT-2 (recombinant full-length human EAT-2) (human, UniProt O14796 1-132).
T5 construct: EAT-2, human, full length; source: E. coli BL21(DE3)pLysS, purified (Co2+ or Ni2+ column, size exclusion chromatography)
T5 sequence (looked up): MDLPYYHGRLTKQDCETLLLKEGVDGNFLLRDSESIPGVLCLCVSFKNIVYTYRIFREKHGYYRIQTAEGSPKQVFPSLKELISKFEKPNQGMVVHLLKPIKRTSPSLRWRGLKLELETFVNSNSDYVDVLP
The test is described as above.

Test [7] deals with T5, EAT-2 (recombinant full-length human …). As to the kind of experiment: SPR; biotinylated phosphopeptides immobilised on streptavidin chip (about 25 RU single motifs); soluble recombinant protein injected in two-fold dilutions; 37°C; HBS-EP (10 mM HEPES pH 7.4, 150 mM NaCl, 3.4 mM EDTA, 0.005% P20); equilibrium binding, one-site model; proteins purified on the same day as SPR (Tables 1 and 6).

For test [8], the target named is T6, SAP (recombinant full-length human SAP) (human, UniProt O60880 1-128).
T6 construct: SAP, human, full length; also called SH2D1A; source: E. coli BL21(DE3)pLysS, purified (Co2+ or Ni2+ column, size exclusion chromatography)
T6 sequence (looked up): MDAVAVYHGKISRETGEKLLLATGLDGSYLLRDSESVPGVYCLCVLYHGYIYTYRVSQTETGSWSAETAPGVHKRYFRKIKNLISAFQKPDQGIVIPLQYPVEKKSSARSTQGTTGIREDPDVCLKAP
The description is as above.

B1: CD244 ITSM1+ITSM2 tandem phosphopeptide (peptide)
peptide: Biotin-EFLTI[pY]EDVKDLKTRRNHEQEQTFPGGGSTI[pY]SMIQS
notes: CD244 (SLAMF4), human, cytoplasmic stretch with ITSM1 and ITSM2; also called tandem ITSM peptide; source: synthetic peptide (Peptide Protein Research Ltd)
What is called Kd is a measure of binding affinity in units of concentration. In the case of B1, the figures for the Kd in test [1] and in test [2] were 1400 nM and 2200 nM, respectively.

B2: CD244 ITSM1,ITSM2 (equimolar mixture of single ITSM on chip) (other)
chain 1: Biotin-EFLTI[pY]EDVKD
chain 2: Biotin-GGSTI[pY]SMIQS
modifications: also: equimolar mixture of two separate peptides
For the molecule B2, the Kd in test [2] came to 22000 nM.

B3: LAT Y132 phosphopeptide (Biotin-HNPGpYLVVLPD) (peptide)
peptide: Biotin-HNPG[pY]LVVLPD
notes: LAT, human, stretch around Y132; also called LAT pY132; source: synthetic peptide (Peptide Protein Research Ltd)
On to B3, for which the Kd in test [3] and in test [4] was 20 nM throughout.

B4: SIRPα ITIM1+ITIM2 tandem phosphopeptide (peptide)
peptide: Biotin-TNDIT[pY]ADLNLPKGKKPAPQAAEPNNHTE[pY]ASIQT
notes: SIRPα, human, cytoplasmic stretch with ITIM1 and ITIM2; source: synthetic peptide (Peptide Protein Research Ltd)
With B4, the values for the Kd in test [1] and in test [2] were 500 nM and 1000 nM, respectively.

B5: FCRγIIb (CD32) phosphopeptide (peptide)
chain: ENTITYSLLMH
modifications: also: phosphorylated, site not given here, biotinylated, site not given here
On to B5, for which the Kd in test [5] stood at 470 nM.

B6: CD244 ITSM3+ITSM4 tandem phosphopeptide (peptide)
peptide: Biotin-PAYTL[pY]SLIQPSRKSGSRKRNHSPSFNSTI[pY]EVIGK
notes: CD244 (SLAMF4), human, cytoplasmic stretch with ITSM3 and ITSM4; source: synthetic peptide (Peptide Protein Research Ltd)
For B6, the Kd came to 7400 nM in test [1] and 10000 nM in test [2].

B7: EAT-2 Y127 phosphopeptide (Biotin-NSNSDpYVDVLP) (peptide)
peptide: Biotin-NSNSD[pY]VDVLP
notes: EAT-2, human, tail with the conserved tyrosine motif Y127; also called EAT-2 pY127; EAT-2 tail phosphopeptide; source: synthetic peptide (Peptide Protein Research Ltd)
Consider B7, for which the dissociation constant Kd was 10 nM in test [3] and 30 nM in test [4].

B8: CD244 ITSM1 phosphopeptide (Biotin-EFLTIpYEDVKD) (peptide)
peptide: Biotin-EFLTI[pY]EDVKD
notes: CD244 (SLAMF4), human, cytoplasmic ITSM1; also called SLAMF4 ITSM1; source: synthetic peptide (Peptide Protein Research Ltd)
As to B8, the Kd was determined as 11000 nM in test [5]; 29000 nM in test [2]; 60 nM in test [6]; 20 nM in test [7]; 800 nM in test [3]; 210 nM in test [4].

B9: SIRPα ITIM3+ITIM4 tandem phosphopeptide (peptide)
chain: EDTLTYADLDMVHLNRTPKQPAPKPEPSFSEYASVQV
modifications: also: phosphorylated, sites not given here, biotinylated, site not given here
Regarding B9, in test [1], the equilibrium dissociation constant (Kd) came to 6400 nM.

B10: CRACC ITSM2 phosphopeptide (Biotin-PANTVpYSTVEI) (peptide)
peptide: Biotin-PANTV[pY]STVEI
notes: CRACC (SLAMF7), human, cytoplasmic ITSM2; also called SLAMF7 ITSM2; source: synthetic peptide (Peptide Protein Research Ltd)
Turning to B10, the dissociation constant Kd was determined as 440 nM in test [8] and 3 nM in test [7].
